Test: soluble on expression in E. coli; label from the status in PepcDB or PDB records

Row | Sequence | soluble on expression in E. coli
1 | MGSDKIHHHHHHMIKVEDKSRCCGCEACVSSCPLQCIELVKDKEGFMYPQVDTARCIDCGKCEKACPELVEAKGSGGVTVYAAVNPDKEARLASSSGGIFTLLAESVLAENGVVFGARFDKDWNVIHDYTETKEGLEAFRGSKYVQSRTGETFKQAEQFLKEGRKVLFSGTPCQIMGLKRYLHKEYDNLLAVDFVCHGVPSPLVWRKYIEETLVRQDEKIQFRPTLNHLFLDEMPLIEGISFRNKCLGWKKYSFALILSKVTTAGEKNTVSLSRIFYDNAYMKAFLANLSLRPACYRCPAKSGKSGSDITLGDFWGIEKIAPELDDDRGCSLLIINNPKVRDELRKKGCLLAEFPISEILPYNLSTAYSVSMPNNRKFFWFMFDKAGFHKALMLATSTTFPIRALRKLFRLI | not soluble
2 | MGSDKIHHHHHHMINLFLYCRAGYEKDCAAEIQQRAAELNVGGFVKTNRNDGYVIFQCFQVGDADLLAEQIELDSLIFTRQMFAANELLKDLPEGDRVTPIVDALAKVHRAGELRVETPDTNEAKELSTFCRKLTVPLRQALKRSGALLEKENPKRPIIHVCFVGPGTAYVGYSLSHNSSPYFMGIPRLKMASDAPSRSTLKLDEAFIHFIPKSEQEQRLRSGMNSVDLGACPGGWTYQLVRRGMFVAAVDNGPMAQNLMDTGQVRHYQADGFRFEPPKKNIYWLVCDMVEKPSRVAELMEAWAINGWFKEAIFNLKLPMKSRYKEVSTILATMQEVLRENGIDDFHLACKHLYHDRDEVTVHLWLKPSVGFNFG | not soluble
3 | MGSDKIHHHHHHMINSGNGTDYESMRFDRRGQAEAFDAIGDRYDEAFPHKEGQVSVGEWLIGSLPPRSRVLDLGCGTGMPTARQLTDAGFDVVGVDLSGGMVELARAYVPGATFHQLDVADLRPGGSRDLGRFDAVAAFFSLLMLPRPEIPLALLTVRHLLVPGGLFALAMVEADVDDFSIPFVGHTIRVSGYLREDLHTVIETAGFEIVKEFSYTYAPSVADVPPEEQVFLCCRRRG | not soluble
4 | MGSDKIHHHHHHMINSHQTQPLLRLENIEKSYGSHRILNKVSFCLYPGEITALIGDNGAGKSTLVQIISGYIQADKGNIYWQEQPLCYSNQYNAPFEMRRLGIQIVHQQLALIDELSIWRNFFLGNEINKKIGPFKFLNIRLMQHIASQSLQSFGLVCLPNIDLPVKKLSGGERQMLVVCRAKYFNAKLLILDEPTSALSPAQADKVLQIIKNIAQAGIAIVFITHNPAHIQNTAHKVIKLSCGTIEIMELTNTLIKG | not soluble
5 | MGSDKIHHHHHHMIQSYPVERSRTIQTRLVLPPDTNHLGTIFGGKVLAYIDEIAALTAMKHANSAVVTASIDSVDFKSSATVGDALELEGFVTHTGRTSMEVYVRVHSNNLLTGERTLTTESFLTMVAVDESGKPKPVPQVEPQTEEEKRLYETAPARKENRKKRAALR | soluble
6 | MGSDKIHHHHHHMIRLDNISKQNGHQILFIEASMGVQKGEKVGLVGPNGAGKTTLFRMITGQEQPDDGIVSIDAGMRIGYFSQDVGEMSGQSAVAAVMDGVGPVSALAAEMATLEAAMVDPDQADQLDAVMERYGEVLERFQELDGYALEARAREVLAGLSFSQERMDADVGLLSGGWKMRVALARILLMRPDGMLLDEPSNHLDLESLIWLESFLKNYDGALLMTSHDRAFMNRIIGKVIEIDAGSLITYSGDLDFYDQQRALSEAQRQAQYERQQAMLAKEIKFIEKFKARASHAAQVQSRVKKLDKIERVEAPRRRQTVQFEFQSPPRSGEDVISLRGVHKGYGERPIYQDLDFLVRRKERWAVLGANGAGKSTLLKLVAGDTKPDQGVVNIGASVKMGYFAQHSMDLLDGEETIFESLERSFPQAGQGALRTLAGCFGFSGDDVEKPCRVLSGGEKARLVMAKMLFDPPNLLVLDEPTNHLDMVTKEMLVASLADFEGTMLFVSHDRHFLAALSNRVLELTPEGIHQYGGGYTEYVARTGQEAPGLHPGG | not soluble
7 | MGSDKIHHHHHHMIRREDYQYLRKLNDFRYFSIEQFDKIVGQMEFRKAKKDHILFFEGDKRDKLFLVTSGYFKVEQSDQSGTFMYTDFIRHGTIFPYGGLFTDDYYHFSVVAMTDVTYFYFPVDLFEDYSLENRLQMKHLYSKMSKLLELHELRVRNLITSSASSRVIQSLAILLVEMGKDSDTLPFQLTTTDIAQISGTTRETVSHVLRDLKKQELITIKGKYLTYLDKDYFLQYTK | not soluble
8 | MGSDKIHHHHHHMITHIRVASQQLEQPRFESPKELVSWMGAIQAQEYEMAKWAIGIRLRSSSLEKVNEALYKGDILRTHVMRPTWHFVAAEDIRWMLMLSSERIKAAVMSYAKGHFGKIEKTLFTRYLDQIGKILEGYKSLTKQEVTTELQKSGILPTIDHVNLFLTWGEVEGIVCSGIDKGKKTTYALLDERVPPTRELCREEALARLASRYFQSHSPAQLQDFVWWSGLTATECRLAINLIKTELITETFDSREYFIHQSWKGKNESKPVLRLLPAFDEYLISYKNRTDVLPLEHHPKAFNRFGTFYPVILYNGKIIGNWSRSIKKNTIQIEMDFFEKKPRIPVKLIQQAEAQIDAFYRGLSHRPALQCREK | not soluble
9 | MGSDKIHHHHHHMITHQDLKQLQSLTKVPALSILLPTHRTSPDNKQDPILVKNLVSEATKRLDKEFTSRQLEPLLKQLETLVSEIDYPHTLDGLALYVSHDFAKLYYLPFPVPARVVIDQTFATRDLVYGRHREHRYWVLLLSQASTRLLAGTGETLEEVNDENFPMQMTGPGATTPLPYETDSSYRDDRYRRFFQQVNSALTLYENDSLPLIVGGVERQISFFQEVSQNTQAMSPRGYAYAGTLRGNFDRATIHELTPQVWSIMQSVQEAQQAEALQALDDAMGTQSVVSTIGEVWRLAHEGRGKLLLVEKNYHVPAILTEDGRFELVDQPGGTDVMDDAVDEIIEVVLAKGGKVAIVDDEVLSIYQRIALIFRY | not soluble
10 | MGSDKIHHHHHHMITSDELTENLSPFELSLFLEKKLHEENHNLETLLNAGRGNPNWTAPTPREAFFLLGQFATKETLREGSEQTAGMIQPSFGRTQRFLNFLAENPSKGATFLQEIWTAEHNYFGMDKEMWLDAMLDYVIGDNYPNPVRCLKACEQPIKAYLNQELFSSEAQPFDIFAVEGGTAGICYLFDTLANNYLLEKGDRIALLLPTFAPYLEIPELPRYDFDVVKIKAEQMIIDGKTTYQYSNKEIDKLKDPSIKAVFVVNPSNPTANAMGKPTIEQIKQISAVDNPKLMILTDDVYGTFVPAFRSLFTELPYNTACIYSYSKYFGATGWRVGTIAVSQENIFDQLLKELPVARKMELQARYATLNADTSQINFISRLVADSRDIALNHAAGLSSIQQAMMALFSLYALLKDGQAYKDEVMDICHTREKLLFRTLGIEEPLASLNTAYYCEINFRDWTEKRYGPEFSSYLTKSWTITKVLTSLAEKEKLMLLKADAFGSDKWSVRISLANLATNQYSEVGKRMIRLSEHIKEEWLRQKRQAIK | not soluble
11 | MGSDKIHHHHHHMIVGGLWMHLNEGSTPMDKYIEITAQKSRMYLLPDSSKVWMQPGSSIRFAEDFKKHRNVWLKGNSLFEVHKNMGRKFRVYIDKAFIEVKGTCFLIKQNNPSANEITLFNGSIEFNVESTQHKIEMKPLQELVYNPADAGTQLRQIENIEWQNGRYNFTQFNLEHLTRIINQMYGSRIIISDKVNKNCAFTGSIRYDESLEDVIDKICFSLNLRKKEINHEIIIYN | not soluble
12 | MGSDKIHHHHHHMIVIEDVYKRYKTDHGPGKWILQGVNLTIPRNVNVGLIGSNGAGKSTLLRIIGGIDHPNKGKVERRCRLSWPMGQGGLEPTLTGRQNAKFVCRLHGHQDDLPERLIFIQDFSGLKDAFDEPVNTYSSGMRSRLQFAMSLAFDFDIYISDEVTAAGDAAFRDKAAAAFKGMTNRAGLIMVAHSESTLRQFCEAGILLYQGKAQWFDKIEEAFKAYKDTVQK | not soluble
13 | MGSDKIHHHHHHMIYFLCSFYGEAEGIISYYKLRKEAVHSSFQIFSSEEIKLIISGTGKINAACAVGYIGSLKSKLSKDLFVNVGICGSRSRTVGECVFINKIKDVDTNKEFYPDILLKHDFEEGNLQTFSIPVTTGQVDDVCDMEGSAFFQSASKFFQKHEIALIKIVSDNANNVNVSGELVRNLIKKSMEKINSYIENYKRIFHEKNFLSDVCTGNIEKIVSRLRLTESQSIQLKKAAVAYKIRNGKEFDFEGFLSLEVKIKNDGRKYFSNLIGSMWK | not soluble
